Assay results as given in patent publication US20250025478A1 (published 2025).

Molecular target: T1, RNF213-TurboID (Homo sapiens (Human), UniProt Q63HN8 1-5207)
T1 construct: Recombined into HeLa FlpIn-TRex RNF213-KO cells; proximity-labelling bait; also called C-Turbo; 3×-FLAG-RNF213-TurboID; not shown: 3×-FLAG tag; TurboID biotin ligase at the C-terminus
Experiment: TurboID proximity biotinylation, streptavidin recovery, MS, SAINT express
Text: Proteins were ranked as potential binding partners by using the SAINT express algorithm³⁶ Immunoblotting (FIG. 9A) and silver staining (FIG. 9B) confirmed that similar amounts of each sample were submitted for analysis. Relatively few proteins labelled by N-Turbo were labelled to an extent greater than their labeling by Control-Turbo (FIG. 9C). […] Among the other top candidates were the major K63-deubiquitinase and NF-κB regulator CYLD and its interacting protein SPATA2 (FIG. 2B, orange-colored arrows). […] Other top C-Turbo interactors included proteins involved in VEGF signaling, which is induced in hypoxia (FLII, MYOF^{39,40}), inflammation and atherosclerosis (MAP4K4, SPTLC1^{41,42}), lipotoxicity (SPTLC1, ALDH1B1^{43,44}), ischemia response (CPEB4⁴⁵), and stroke (SARS2⁴⁶). Top N-Turbo interactors included CYP51A1, which plays a crucial role in cholesterol metabolism and atherosclerosis⁴⁷.
Cells were cultured in standard media but with 10% tetracycline (Tet)-free FBS (Clonetech) for at least 1 week. Tet-free/biotin-free FBS was generated by incubating Tet-free FBS with sterile streptavidin beads overnight followed by centrifugation to remove the beads. N-Turbo, C-Turbo, and Turbo proteins were induced by adding 1 μg/ml Dox to cells for 36 hours. For the last ten min. of incubation, 500 μM of biotin was added to the medium. Labelling reactions was terminated by removing the medium and adding ice-cold PBS to plates, which were kept on ice. Lysates were collected in RIPA buffer without Na-deoxycholate, and biotin-labelled proteins were collected by incubating with high-capacity streptavidin agarose beads for 4 hours at 4° C.

T1 sequence (Q63HN8 whole entry N1045D): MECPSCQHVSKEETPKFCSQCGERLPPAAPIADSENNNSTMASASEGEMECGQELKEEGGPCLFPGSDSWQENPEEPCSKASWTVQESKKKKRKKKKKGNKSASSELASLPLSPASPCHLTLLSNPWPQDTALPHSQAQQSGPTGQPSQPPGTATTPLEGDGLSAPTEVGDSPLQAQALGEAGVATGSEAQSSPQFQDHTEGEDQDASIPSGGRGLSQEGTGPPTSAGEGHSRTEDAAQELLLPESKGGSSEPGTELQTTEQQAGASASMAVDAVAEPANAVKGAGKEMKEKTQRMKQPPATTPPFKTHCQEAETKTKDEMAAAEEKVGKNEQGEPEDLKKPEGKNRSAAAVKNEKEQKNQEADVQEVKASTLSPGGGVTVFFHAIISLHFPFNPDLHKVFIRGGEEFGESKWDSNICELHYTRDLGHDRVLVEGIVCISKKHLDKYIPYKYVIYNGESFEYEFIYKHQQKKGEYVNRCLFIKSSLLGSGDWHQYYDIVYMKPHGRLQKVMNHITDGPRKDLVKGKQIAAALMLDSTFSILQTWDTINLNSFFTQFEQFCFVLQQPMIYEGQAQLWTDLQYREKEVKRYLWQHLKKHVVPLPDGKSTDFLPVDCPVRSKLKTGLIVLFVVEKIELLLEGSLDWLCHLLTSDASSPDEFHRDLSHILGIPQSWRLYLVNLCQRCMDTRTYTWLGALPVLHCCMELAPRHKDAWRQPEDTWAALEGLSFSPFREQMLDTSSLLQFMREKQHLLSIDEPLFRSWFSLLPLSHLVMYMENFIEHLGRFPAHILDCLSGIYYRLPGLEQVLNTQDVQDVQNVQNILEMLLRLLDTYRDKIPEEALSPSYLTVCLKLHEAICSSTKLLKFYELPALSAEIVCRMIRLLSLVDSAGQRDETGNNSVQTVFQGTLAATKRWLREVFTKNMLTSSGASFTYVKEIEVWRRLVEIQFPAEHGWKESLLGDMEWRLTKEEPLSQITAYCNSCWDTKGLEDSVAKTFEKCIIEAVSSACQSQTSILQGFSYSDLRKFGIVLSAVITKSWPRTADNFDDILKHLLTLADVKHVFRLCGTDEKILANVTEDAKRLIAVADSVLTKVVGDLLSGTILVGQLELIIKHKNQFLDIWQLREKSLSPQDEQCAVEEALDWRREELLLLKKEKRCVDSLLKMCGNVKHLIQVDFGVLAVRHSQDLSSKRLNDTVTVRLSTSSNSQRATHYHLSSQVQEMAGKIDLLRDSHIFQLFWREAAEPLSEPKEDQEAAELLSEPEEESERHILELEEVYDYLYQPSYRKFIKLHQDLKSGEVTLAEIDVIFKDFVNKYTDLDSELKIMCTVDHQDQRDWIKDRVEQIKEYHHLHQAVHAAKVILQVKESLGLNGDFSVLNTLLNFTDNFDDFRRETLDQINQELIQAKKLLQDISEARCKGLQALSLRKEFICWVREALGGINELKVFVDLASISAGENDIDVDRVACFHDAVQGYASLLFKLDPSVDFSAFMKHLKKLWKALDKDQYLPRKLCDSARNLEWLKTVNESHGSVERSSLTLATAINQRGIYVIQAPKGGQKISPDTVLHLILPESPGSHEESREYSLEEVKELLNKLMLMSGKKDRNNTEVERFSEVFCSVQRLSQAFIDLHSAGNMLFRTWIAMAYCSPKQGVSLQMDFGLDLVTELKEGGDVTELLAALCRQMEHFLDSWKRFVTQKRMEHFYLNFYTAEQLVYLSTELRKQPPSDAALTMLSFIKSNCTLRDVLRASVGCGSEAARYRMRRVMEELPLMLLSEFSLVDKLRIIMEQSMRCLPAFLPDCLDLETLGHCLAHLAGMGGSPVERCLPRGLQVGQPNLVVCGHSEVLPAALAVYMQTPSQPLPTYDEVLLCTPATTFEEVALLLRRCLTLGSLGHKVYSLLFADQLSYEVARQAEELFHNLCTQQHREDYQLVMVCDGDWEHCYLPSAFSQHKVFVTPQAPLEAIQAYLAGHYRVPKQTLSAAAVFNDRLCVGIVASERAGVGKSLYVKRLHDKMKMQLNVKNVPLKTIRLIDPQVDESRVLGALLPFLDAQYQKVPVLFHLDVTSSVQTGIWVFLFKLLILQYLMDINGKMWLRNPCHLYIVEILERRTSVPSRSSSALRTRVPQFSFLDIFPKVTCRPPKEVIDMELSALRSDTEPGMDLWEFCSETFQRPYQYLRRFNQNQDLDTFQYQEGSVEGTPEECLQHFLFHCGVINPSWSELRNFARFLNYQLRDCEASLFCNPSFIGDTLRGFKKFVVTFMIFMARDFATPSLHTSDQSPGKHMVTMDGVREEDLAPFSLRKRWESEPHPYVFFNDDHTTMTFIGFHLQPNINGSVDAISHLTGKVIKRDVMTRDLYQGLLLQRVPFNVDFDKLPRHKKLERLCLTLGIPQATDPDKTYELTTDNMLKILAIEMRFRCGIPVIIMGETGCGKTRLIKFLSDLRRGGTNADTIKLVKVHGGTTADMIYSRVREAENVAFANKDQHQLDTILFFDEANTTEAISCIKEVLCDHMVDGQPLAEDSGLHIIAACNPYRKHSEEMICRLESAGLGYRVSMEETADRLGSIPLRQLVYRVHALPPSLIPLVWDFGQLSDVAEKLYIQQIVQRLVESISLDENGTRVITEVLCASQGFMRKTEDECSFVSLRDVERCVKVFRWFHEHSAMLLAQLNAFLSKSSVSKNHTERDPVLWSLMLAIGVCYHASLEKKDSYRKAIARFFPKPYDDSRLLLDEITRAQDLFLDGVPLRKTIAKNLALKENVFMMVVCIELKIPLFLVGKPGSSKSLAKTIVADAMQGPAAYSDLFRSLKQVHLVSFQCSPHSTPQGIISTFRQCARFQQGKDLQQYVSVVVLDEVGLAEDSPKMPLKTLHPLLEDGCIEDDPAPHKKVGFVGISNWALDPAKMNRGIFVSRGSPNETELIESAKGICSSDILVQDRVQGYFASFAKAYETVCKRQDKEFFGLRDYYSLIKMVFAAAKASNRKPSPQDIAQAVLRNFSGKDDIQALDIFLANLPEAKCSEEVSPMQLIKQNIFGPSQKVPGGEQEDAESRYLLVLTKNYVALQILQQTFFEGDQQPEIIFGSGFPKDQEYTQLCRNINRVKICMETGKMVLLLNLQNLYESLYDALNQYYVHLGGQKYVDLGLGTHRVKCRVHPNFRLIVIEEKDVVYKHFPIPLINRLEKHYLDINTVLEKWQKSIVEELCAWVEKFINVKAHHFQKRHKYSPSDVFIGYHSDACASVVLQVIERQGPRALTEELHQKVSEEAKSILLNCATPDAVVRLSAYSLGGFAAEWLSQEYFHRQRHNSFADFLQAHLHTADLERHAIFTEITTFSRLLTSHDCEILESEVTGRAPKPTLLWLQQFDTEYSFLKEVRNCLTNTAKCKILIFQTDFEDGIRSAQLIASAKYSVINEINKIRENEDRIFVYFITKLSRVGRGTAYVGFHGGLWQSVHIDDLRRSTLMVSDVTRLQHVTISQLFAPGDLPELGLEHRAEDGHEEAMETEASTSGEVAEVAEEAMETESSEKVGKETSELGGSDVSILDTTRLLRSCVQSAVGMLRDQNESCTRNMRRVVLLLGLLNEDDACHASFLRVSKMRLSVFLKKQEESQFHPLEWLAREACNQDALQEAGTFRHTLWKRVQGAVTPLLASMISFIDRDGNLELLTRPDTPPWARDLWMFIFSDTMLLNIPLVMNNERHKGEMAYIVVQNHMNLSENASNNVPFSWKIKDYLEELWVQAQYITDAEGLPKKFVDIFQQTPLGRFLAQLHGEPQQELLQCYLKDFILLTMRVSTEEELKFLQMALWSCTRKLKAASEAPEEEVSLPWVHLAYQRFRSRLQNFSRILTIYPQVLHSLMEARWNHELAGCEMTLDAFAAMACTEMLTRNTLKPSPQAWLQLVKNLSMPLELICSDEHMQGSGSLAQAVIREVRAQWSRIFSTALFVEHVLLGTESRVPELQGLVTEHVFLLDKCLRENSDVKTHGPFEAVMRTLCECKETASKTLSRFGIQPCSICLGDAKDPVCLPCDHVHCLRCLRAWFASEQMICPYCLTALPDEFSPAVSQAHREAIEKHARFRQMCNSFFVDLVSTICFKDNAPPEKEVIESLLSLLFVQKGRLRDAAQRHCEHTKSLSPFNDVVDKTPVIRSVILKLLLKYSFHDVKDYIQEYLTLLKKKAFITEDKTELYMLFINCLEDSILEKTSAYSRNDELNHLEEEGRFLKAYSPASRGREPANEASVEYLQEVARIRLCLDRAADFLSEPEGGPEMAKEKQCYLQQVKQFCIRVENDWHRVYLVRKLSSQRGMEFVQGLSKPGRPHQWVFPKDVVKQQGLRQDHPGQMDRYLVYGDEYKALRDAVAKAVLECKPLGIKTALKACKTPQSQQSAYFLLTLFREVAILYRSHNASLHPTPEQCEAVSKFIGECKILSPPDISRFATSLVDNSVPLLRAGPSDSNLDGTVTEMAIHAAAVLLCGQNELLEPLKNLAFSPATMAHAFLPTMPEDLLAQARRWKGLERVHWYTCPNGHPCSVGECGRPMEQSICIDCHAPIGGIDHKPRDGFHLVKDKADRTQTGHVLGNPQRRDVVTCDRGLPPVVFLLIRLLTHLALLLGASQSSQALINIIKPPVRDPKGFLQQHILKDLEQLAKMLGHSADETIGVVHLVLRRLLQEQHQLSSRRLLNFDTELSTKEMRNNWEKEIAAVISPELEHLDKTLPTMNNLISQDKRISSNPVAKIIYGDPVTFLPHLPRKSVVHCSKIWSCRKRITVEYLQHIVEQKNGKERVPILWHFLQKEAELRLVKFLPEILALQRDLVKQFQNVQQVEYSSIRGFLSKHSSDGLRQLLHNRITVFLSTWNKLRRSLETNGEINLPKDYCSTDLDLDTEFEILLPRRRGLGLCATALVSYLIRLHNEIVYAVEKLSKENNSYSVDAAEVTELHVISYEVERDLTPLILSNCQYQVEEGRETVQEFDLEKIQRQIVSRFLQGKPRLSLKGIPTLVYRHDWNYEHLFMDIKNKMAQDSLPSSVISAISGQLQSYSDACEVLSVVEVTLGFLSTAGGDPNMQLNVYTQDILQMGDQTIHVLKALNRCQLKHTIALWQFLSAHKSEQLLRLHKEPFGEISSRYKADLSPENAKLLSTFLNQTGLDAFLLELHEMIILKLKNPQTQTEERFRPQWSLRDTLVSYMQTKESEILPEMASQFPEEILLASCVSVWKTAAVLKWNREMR

| Binder | binding result |
| --- | --- |
| FLII (other, Homo sapiens, UniProt Q13045-2 1-1214, looked up, Endogenous protein found by proximity labelling/MS; also called Protein flightless-1 homolog) MEATGVLPFVRGVDLSGNDFKGGYFPENVKAMTSLRWLKLNRTGLCYLPEELAALQKLEHLSVSHNNLTTLHGELSSLPSLRAIVARANSLKNSGVPDDIFKLDDLSVLDLSHNQLTECPRELENAKNMLVLNLSHNRQLPAMTALQTLHLRSTQRTQSNLPTSLEGLSNLADVDLSCNDLTRVPECLYTLPSLRRLNLSSNQITELSLCIDQWVHVETLNLSRNQLTSLPSAICKLSKLKKLYLNSNKLDFDGLPSGIGKLTNLEEFMAANNNLELVPESLCRCPKLRKLVLNKNHLVTLPEAIHFLTEIEVLDVRENPNLVMPPKPADRAAEWYNIDFSLQNQLRLAGASPATVAAAAAGSGPKDPMARKMRLRRRKDSAQDDQAKQVLKGMSDVAQEKNKKQEESADARAPSGKVRRWDQGLEKPRLDYSEFFTEDVGQLPGLTIWQIENFVPVLVEEAFHGKFYEADCYIVLKTFLDDSGSLNWEIYYWIGGEATLDKKACSAIHAVNLRNYLGAECRTVREEMGDESEEFLQVFDNDISYIEGGTASGFYTVEDTHYVTRMYRVYGKKNIKLEPVPLKGTSLDPRFVFLLDRGLDIYVWRGAQATLSSTTKARLFAEKINKNERKGKAEITLLVQGQELPEFWEALGGEPSEIKKHVPEDFWPPQPKLYKVGLGLGYLELPQINYKLSVEHKQRPKVELMPRMRLLQSLLDTRCVYILDCWSDVFIWLGRKSPRLVRAAALKLGQELCGMLHRPRHATVSRSLEGTEAQVFKAKFKNWDDVLTVDYTRNAEAVLQSPGLSGKVKRDAEKKDQMKADLTALFLPRQPPMSLAEAEQLMEEWNEDLDGMEGFVLEGKKFARLPEEEFGHFYTQDCYVFLCRYWVPVEYEEEEKKEDKEEKAEGKEGEEATAEAEEKQPEEDFQCIVYFWQGREASNMGWLTFTFSLQKKFESLFPGKLEVVRMTQQQENPKFLSHFKRKFIIHRGKRKAVQGAQQPSLYQIRTNGSALCTRCIQINTDSSLLNSEFCFILKVPFESEDNQGIVYAWVGRASDPDEAKLAEDILNTMFDTSYSKQVINEGEEPENFFWVGIGAQKPYDDDAEYMKHTRLFRCSNEKGYFAVTEKCSDFCQDDLADDDIMLLDNGQEVYMWVGTQTSQVEIKLSLKACQVYIQHMRSKEHERPRRLRLVRKGNEQHAFTRCFHAWSAFCKALA | binds |
| SPTLC1 (enzyme, Homo sapiens, UniProt O15269 1-473, looked up, Endogenous protein found by proximity labelling/MS; also called Serine palmitoyltransferase 1) MATATEQWVLVEMVQALYEAPAYHLILEGILILWIIRLLFSKTYKLQERSDLTVKEKEELIEEWQPEPLVPPVPKDHPALNYNIVSGPPSHKTVVNGKECINFASFNFLGLLDNPRVKAAALASLKKYGVGTCGPRGFYGTFDVHLDLEDRLAKFMKTEEAIIYSYGFATIASAIPAYSKRGDIVFVDRAACFAIQKGLQASRSDIKLFKHNDMADLERLLKEQEIEDQKNPRKARVTRRFIVVEGLYMNTGTICPLPELVKLKYKYKARIFLEESLSFGVLGEHGRGVTEHYGINIDDIDLISANMENALASIGGFCCGRSFVIDHQRLSGQGYCFSASLPPLLAAAAIEALNIMEENPGIFAVLKEKCGQIHKALQGISGLKVVGESLSPAFHLQLEESTGSREQDVRLLQEIVDQCMNRSIALTQARYLEKEEKCLPPPSIRVVVTVEQTEEELERAASTIKEVAQAVLL | binds |
| ALDH1B1 (enzyme, Homo sapiens, UniProt P30837 18-517, looked up, Endogenous protein found by proximity labelling/MS; also called Aldehyde dehydrogenase X, mitochondrial) RYSSAAALPSPILNPDIPYNQLFINNEWQDAVSKKTFPTVNPTTGEVIGHVAEGDRADVDRAVKAAREAFRLGSPWRRMDASERGRLLNRLADLVERDRVYLASLETLDNGKPFQESYALDLDEVIKVYRYFAGWADKWHGKTIPMDGQHFCFTRHEPVGVCGQIIPWNFPLVMQGWKLAPALATGNTVVMKVAEQTPLSALYLASLIKEAGFPPGVVNIITGYGPTAGAAIAQHVDVDKVAFTGSTEVGHLIQKAAGDSNLKRVTLELGGKSPSIVLADADMEHAVEQCHEALFFNMGQCCCAGSRTFVEESIYNEFLERTVEKAKQRKVGNPFELDTQQGPQVDKEQFERVLGYIQLGQKEGAKLLCGGERFGERGFFIKPTVFGGVQDDMRIAKEEIFGPVQPLFKFKKIEEVVERANNTRYGLAAAVFTRDLDKAMYFTQALQAGTVWVNTYNIVTCHTPFGGFKESGNGRELGEDGLKAYTEVKTVTIKVPQKNS | binds |

Next, values leading:

| binding result | Binder |
| --- | --- |
| binds | CPEB4 (other, Homo sapiens, UniProt Q17RY0-2 1-712, looked up, Endogenous protein found by proximity labelling/MS) MGDYGFGVLVQSNTGNKSAFPVRFHPHLQPPHHHQNATPSPAAFINNNTAANGSSAGSAWLFPAPATHNIQDEILGSEKAKSQQQEQQDPLEKQQLSPSPGQEAGILPETEKAKSEENQGDNSSENGNGKEKIRIESPVLTGFDYQEATGLGTSTQPLTSSASSLTGFSNWSAAIAPSSSTIINEDASFFHQGGVPAASANNGALLFQNFPHHVSPGFGGSFSPQIGPLSQHHPHHPHFQHHHSQHQQQRRSPASPHPPPFTHRNAAFNQLPHLANNLNKPPSPWSSYQSPSPTPSSSWSPGGGGYGGWGGSQGRDHRRGLNGGITPLNSISPLKKNFASNHIQLQKYARPSSAFAPKSWMEDSLNRADNIFPFPDRPRTFDMHSLESSLIDIMRAENDTIKARTYGRRRGQSSLFPMEDGFLDDGRGDQPLHSGLGSPHCFSHQNGERVERYSRKVFVGGLPPDIDEDEITASFRRFGPLIVDWPHKAESKSYFPPKGYAFLLFQDESSVQALIDACIEEDGKLYLCVSSPTIKDKPVQIRPWNLSDSDFVMDGSQPLDPRKTIFVGGVPRPLRAVELAMIMDRLYGGVCYAGIDTDPELKYPKGAGRVAFSNQQSYIAAISARFVQLQHGEIDKRVEVKPYVLDDQLCDECQGARCGGKFAPFFCANVTCLQYYCEYCWAAIHSRAGREFHKPLVKEGGDRPRHISFRWN |
| binds | MAP4K4 (enzyme, Homo sapiens, UniProt O95819-4 2-1165, looked up, Endogenous protein found by proximity labelling/MS) ANDSPAKSLVDIDLSSLRDPAGIFELVEVVGNGTYGQVYKGRHVKTGQLAAIKVMDVTEDEEEEIKLEINMLKKYSHHRNIATYYGAFIKKSPPGHDDQLWLVMEFCGAGSITDLVKNTKGNTLKEDWIAYISREILRGLAHLHIHHVIHRDIKGQNVLLTENAEVKLVDFGVSAQLDRTVGRRNTFIGTPYWMAPEVIACDENPDATYDYRSDLWSCGITAIEMAEGAPPLCDMHPMRALFLIPRNPPPRLKSKKWSKKFFSFIEGCLVKNYMQRPSTEQLLKHPFIRDQPNERQVRIQLKDHIDRTRKKRGEKDETEYEYSGSEEEEEEVPEQEGEPSSIVNVPGESTLRRDFLRLQQENKERSEALRRQQLLQEQQLREQEEYKRQLLAERQKRIEQQKEQRRRLEEQQRREREARRQQEREQRRREQEEKRRLEELERRRKEEEERRRAEEEKRRVEREQEYIRRQLEEEQRHLEVLQQQLLQEQAMLLHDHRRPHPQHSQQPPPPQQERSKPSFHAPEPKAHYEPADRAREVPVRTTSRSPVLSRRDSPLQGSGQQNSQAGQRNSTSIEPRLLWERVEKLVPRPGSGSSSGSSNSGSQPGSHPGSQSGSGERFRVRSSSKSEGSPSQRLENAVKKPEDKKEVFRPLKPAGEVDLTALAKELRAVEDVRPPHKVTDYSSSSEESGTTDEEDDDVEQEGADESTSGPEDTRAASSLNLSNGETESVKTMIVHDDVESEPAMTPSKEGTLIVRQTQSASSTLQKHKSSSSFTPFIDPRLLQISPSSGTTVTSVVGFSCDGMRPEAIRQDPTRKGSVVNVNPTNTRPQSDTPEIRKYKKRFNSEILCAALWGVNLLVGTESGLMLLDRSGQGKVYPLINRRRFQQMDVLEGLNVLVTISGKKDKLRVYYLSWLRNKILHNDPEVEKKQGWTTVGDLEGCVHYKVVKYERIKFLVIALKSSVEVYAWAPKPYHKFMAFKSFGELVHKPLLVDLTVEEGQRLKVIYGSCAGFHAVDVDSGSVYDIYLPTHVRKNPHSMIQCSIKPHAIIILPNTDGMELLVCYEDEGVYVNTYGRITKDVVLQWGEMPTSVAYIRSNQTMGWGEKAIEIRSVETGHLDGVFMHKRAQRLKFLCERNDKVFFASVRSGGSSQVYFMTLGRTSLLSW |
